Data from PMC5448004.

Molecular target: HepA (helicase protein A), archaeal HerA homolog of Thermus thermophilus, product of gene TTC0147 (Thermus thermophilus HB27)
Assay: negative-stain single-particle electron microscopy; purified HepA at 0.3 mg/mL in 20 mM Tris-HCl pH 7.5, pre-incubated with 1-10 mM ATP (30 min, 65 °C), 2% uranyl acetate; 2D classification and 3D reconstruction with C6 symmetry

HepA (helicase protein A), archaeal HerA homolog of Thermus thermophilus, product of gene TTC0147 (enzyme)
stoichiometry N: 6
